Target: SARS-CoV-2 spike protein receptor-binding domain (residues 319 to 533), wild type (SARS-CoV-2, UniProt P0DTC2)
Test: SPR
Conditions: both partners purified

B1: nCoV617 (full-length recombinant human IgG1) (antibody, V domains shown)
VH: QVQLVESGGGVVQPGRSLRLSCAASGFTFSSYAMHWVRQAPGKGLEWVALISYDGSNKYADSVKGRFTISRDNSKNTLYLQMNSLRAEDTAVYYCARGLGLRFLEWPISSYWGQGTLVTVSS
VL: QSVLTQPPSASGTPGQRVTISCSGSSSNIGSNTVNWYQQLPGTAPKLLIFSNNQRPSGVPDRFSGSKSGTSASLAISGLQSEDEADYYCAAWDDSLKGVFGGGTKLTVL
notes: also called MAb nCoV617; NAb nCoV617
Kd: 4.23 nM

Reference: paper PMC8515945 (Microbiology Spectrum, 2021)
